Measured values taken from paper PMC8647145, “Foxd3 controls heterochromatin‐mediated repression of repeat elements and 2‐cell state transcription”.
Positions count from the first letter of the chain named.

T1: GST-FOXD3 (mouse, UniProt Q61060 1-465)
T1 sequence: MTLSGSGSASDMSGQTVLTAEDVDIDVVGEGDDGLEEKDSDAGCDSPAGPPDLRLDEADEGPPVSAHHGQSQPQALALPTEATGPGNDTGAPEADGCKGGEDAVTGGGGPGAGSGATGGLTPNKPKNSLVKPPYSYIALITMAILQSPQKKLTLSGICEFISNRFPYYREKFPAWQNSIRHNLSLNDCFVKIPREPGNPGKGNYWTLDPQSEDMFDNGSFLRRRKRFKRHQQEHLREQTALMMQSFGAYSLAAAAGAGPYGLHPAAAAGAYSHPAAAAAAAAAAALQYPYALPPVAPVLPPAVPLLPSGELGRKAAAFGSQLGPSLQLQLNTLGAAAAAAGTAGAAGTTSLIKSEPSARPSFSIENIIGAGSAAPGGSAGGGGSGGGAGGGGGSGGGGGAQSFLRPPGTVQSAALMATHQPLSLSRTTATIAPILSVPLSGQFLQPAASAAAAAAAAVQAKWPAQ

B1: Sox15 (dsDNA)
DNA 1: CAGAGGCTACTCTGAAACAAATAAAGAGATATAAA
DNA 2: TTTATATCTCTTTATTTGTTTCAGAGTAGCCTCTG
B2: MSR (dsDNA)
DNA 1: CTGAAAATCATGGAAAATGAGAAACATCCACTTGA
DNA 2: TCAAGTGGATGTTTCTCATTTTCCATGATTTTCAG
B3: MERVL-LTR (dsDNA)
DNA 1: CAGCTGTGTTCTAAGTGGTAAACAAATAATCTGCG
DNA 2: CGCAGATTATTTGTTTACCACTTAGAACACAGCTG
B4: MERVL-int (dsDNA)
DNA 1: CCATCTTTTGATAAACACCTCAGCCAACCATTCAA
DNA 2: TTGAATGGTTGGCTGAGGTGTTTATCAAAAGATGG
B5: L1MdA (dsDNA)
DNA 1: GTACATAGGGAAGCAGGCTACCCGGGCCTGATCTG
DNA 2: CAGATCAGGCCCGGGTAGCCTGCTTCCCTATGTAC
B6: Hprt (dsDNA)
DNA 1: AGGGCGGGCCGAGGGGCGGAGCCTGGCCGGCAGCG
DNA 2: CGCTGCCGGCCAGGCTCCGCCCCTCGGCCCGCCCT
B7: MERVL-LTR_MUT (dsDNA)
DNA 1: B3 DNA 1 with A21C, A24G, A25C, A26C
DNA 2: B3 DNA 2 with T10G, T11G, T12C, T15G
B8: MSR_MUT (dsDNA)
DNA 1: CTGAAAATCATGGAAAATGCGTGACGGCGACTTGA
DNA 2: TCAAGTCGCCGTCACGCATTTTCCATGATTTTCAG

biological target: T1, GST-FOXD3; assay: EMSA; EMSA: 50 nM DNA, 20 mM Tris-HCl pH 8.0, 100 mM KCl, 3 mM MgCl2, 1 mM EDTA, 5% glycerol, 0.05% NP-40, 2 mM DTT, 50 ng/ml yeast tRNA, 2.5 ng/ml BSA, 4 C, 1 h; settings: protein: recombinant; tags: N-terminal GST (pGEX-6P1); label: 5'-Cy5; blunt

**Q.** Does B1 bind?
**A.** Result: binds

**Q.** Does B2 bind?
**A.** Result: binds

**Q.** Does B3 bind?
**A.** Result: binds

**Q.** Does B4 bind?
**A.** Result: binds

biological target: T1, GST-FOXD3; assay: EMSA; up to 2.5 uM protein; EMSA: 50 nM DNA, 20 mM Tris-HCl pH 8.0, 100 mM KCl, 3 mM MgCl2, 1 mM EDTA, 5% glycerol, 0.05% NP-40, 2 mM DTT, 50 ng/ml yeast tRNA, 2.5 ng/ml BSA, 4 C, 1 h; settings: protein: recombinant; tags: N-terminal GST (pGEX-6P1); label: 5'-Cy5; blunt

**Q.** Does B5 bind?
**A.** Result: no binding

**Q.** Does B6 bind?
**A.** Result: no binding

**Q.** Does B7 bind?
**A.** Result: no binding

**Q.** Does B8 bind?
**A.** Result: no binding
